Article PMC11949838, “FUT10 and FUT11 are protein O-fucosyltransferases that modify protein EMI domains” (Nature Chemical Biology, 2025)

B1: Multimerin-1 (MMRN1): FX KO (protein)
parent chain: MKGARLFVLLSSLWSGGIGLNNSKHSWTIPEDGNSQKTMPSASVPPNKIQSLQILPTTRVMSAEIATTPEARTSEDSLLKSTLPPSETSAPAEGVRNQTLTSTEKAEGVVKLQNLTLPTNASIKFNPGAESVVLSNSTLKFLQSFARKSNEQATSLNTVGGTGGIGGVGGTGGVGNRAPRETYLSRGDSSSSQRTDYQKSNFETTRGKNWCAYVHTRLSPTVILDNQVTYVPGGKGPCGWTGGSCPQRSQKISNPVYRMQHKIVTSLDWRCCPGYSGPKCQLRAQEQQSLIHTNQAESHTAVGRGVAEQQQQQGCGDPEVMQKMTDQVNYQAMKLTLLQKKIDNISLTVNDVRNTYSSLEGKVSEDKSREFQSLLKGLKSKSINVLIRDIVREQFKIFQNDMQETVAQLFKTVSSLSEDLESTRQIIQKVNESVVSIAAQQKFVLVQENRPTLTDIVELRNHIVNVRQEMTLTCEKPIKELEVKQTHLEGALEQEHSRSILYYESLNKTLSKLKEVHEQLLSTEQVSDQKNAPAAESVSNNVTEYMSTLHENIKKQSLMMLQMFEDLHIQESKINNLTVSLEMEKESLRGECEDMLSKCRNDFKFQLKDTEENLHVLNQTLAEVLFPMDNKMDKMSEQLNDLTYDMEILQPLLEQGASLRQTMTYEQPKEAIVIRKKIENLTSAVNSLNFIIKELTKRHNLLRNEVQGRDDALERRINEYALEMEDGLNKTMTIINNAIDFIQDNYALKETLSTIKDNSEIHHKCTSDMETILTFIPQFHRLNDSIQTLVNDNQRYNFVLQVAKTLAGIPRDEKLNQSNFQKMYQMFNETTSQVRKYQQNMSHLEEKLLLTTKISKNFETRLQDIESKVTQTLIPYYISVKKGSVVTNERDQALQLQVLNSRFKALEAKSIHLSINFFSLNKTLHEVLTMCHNASTSVSELNATIPKWIKHSLPDIQLLQKGLTEFVEPIIQIKTQAALSNLTCCIDRSLPGSLANVVKSQKQVKSLPKKINALKKPTVNLTTVLIGRTQRNTDNIIYPEEYSSCSRHPCQNGGTCINGRTSFTCACRHPFTGDNCTIKLVEENALAPDFSKGSYRYAPMVAFFASHTYGMTIPGPILFNNLDVNYGASYTPRTGKFRIPYLGVYVFKYTIESFSAHISGFLVVDGIDKLAFESENINSEIHCDRVLTGDALLELNYGQEVWLRLAKGTIPAKFPPVTTFSGYLLYRT
B2: Multimerin-1 (MMRN1): T216A (protein)
parent chain: B1 parent chain
B3: Multimerin-1 (MMRN1): T265A (protein)
parent chain: B1 parent chain
B4: Multimerin-1 (MMRN1): T216A/T265A (protein)
parent chain: B1 parent chain
B5: Multimerin-1 (MMRN1): T1055A (protein)
parent chain: B1 parent chain
B6: Multimerin-1 (MMRN1): FUT10/11 DKO (protein)
parent chain: B1 parent chain
B7: GFP–FUT11 (POFUT4) (Homo sapiens) (protein)
chain: AGGEAEWAEPWDGAVFRPPSALGAVGVTRSSGTPRPGREEAGDLPVLLWWSPGLFPHFPGDSERIECARGACVASRNRRALRDSRTRALLFYGTDFRASAAPLPRLAHQSWALLHEESPLNNFLLSHGPGIRLFNLTSTFSRHSDYPLSLQWLPGTAYLRRPVPPPMERAEWRRRGYAPLLYLQSHCDVPADRDRYVRELMRHIPVDSYGKCLQNRELPTARLQDTATATTEDPELLAFLSRYKFHLALENAICNDYMTEKLWRPMHLGAVPVYRGSPSVRDWMPNNHSVILIDDFESPQKLAEFIDFLDKNDEEYMKYLAYKQPGGITNQFLLDSLKHREWGVNDPLLPNYLNGFECFVCDYELARLDAEKAHAASPGDSPVFEPHIAQPSHMDCPVPTPGFGNVEEIPENDSWKEMWLQDYWQGLDQGEALTAMIHNNETEQTKFWDYLHEIFMKRQHL

Tests used:
GFP–FUT10 (POFUT3) = biological target: T1, GFP–FUT10 (POFUT3) (Homo sapiens, UniProt Q6P4F1); test: nano LC-MS/MS of O-fucosylated EMI peptides; assay type: biochemical; settings: donor; 100 μM with 0.5 μM non-fucosylated MMRN1 N-terminal EMI, 50 mM HEPES pH 7, 37 °C
T1 sequence (Q6P4F1 34-479 limits assumed): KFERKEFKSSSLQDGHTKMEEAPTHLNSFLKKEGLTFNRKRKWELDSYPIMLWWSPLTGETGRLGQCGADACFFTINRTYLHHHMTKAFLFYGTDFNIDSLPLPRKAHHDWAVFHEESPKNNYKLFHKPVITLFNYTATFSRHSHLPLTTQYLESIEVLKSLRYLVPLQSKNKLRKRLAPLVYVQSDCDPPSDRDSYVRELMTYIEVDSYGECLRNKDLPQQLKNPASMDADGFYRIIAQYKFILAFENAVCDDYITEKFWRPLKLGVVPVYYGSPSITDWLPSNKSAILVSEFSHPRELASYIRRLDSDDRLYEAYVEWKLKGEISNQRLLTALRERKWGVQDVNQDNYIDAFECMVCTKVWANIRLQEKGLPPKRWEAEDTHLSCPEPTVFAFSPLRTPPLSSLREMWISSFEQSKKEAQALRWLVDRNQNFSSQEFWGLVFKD

GFP–FUT8 = biological target: T2, GFP–FUT8 (Homo sapiens, UniProt Q9BYC5); test: nano LC-MS/MS of N-glycan fucosylation on EMI; assay type: biochemical; settings: donor; 100 μM with 0.5 μM non-fucosylated MMRN1 N-terminal EMI, 50 mM HEPES pH 7, 37 °C, 30 min; positive control
T2 sequence (Q9BYC5 31-575 limits assumed): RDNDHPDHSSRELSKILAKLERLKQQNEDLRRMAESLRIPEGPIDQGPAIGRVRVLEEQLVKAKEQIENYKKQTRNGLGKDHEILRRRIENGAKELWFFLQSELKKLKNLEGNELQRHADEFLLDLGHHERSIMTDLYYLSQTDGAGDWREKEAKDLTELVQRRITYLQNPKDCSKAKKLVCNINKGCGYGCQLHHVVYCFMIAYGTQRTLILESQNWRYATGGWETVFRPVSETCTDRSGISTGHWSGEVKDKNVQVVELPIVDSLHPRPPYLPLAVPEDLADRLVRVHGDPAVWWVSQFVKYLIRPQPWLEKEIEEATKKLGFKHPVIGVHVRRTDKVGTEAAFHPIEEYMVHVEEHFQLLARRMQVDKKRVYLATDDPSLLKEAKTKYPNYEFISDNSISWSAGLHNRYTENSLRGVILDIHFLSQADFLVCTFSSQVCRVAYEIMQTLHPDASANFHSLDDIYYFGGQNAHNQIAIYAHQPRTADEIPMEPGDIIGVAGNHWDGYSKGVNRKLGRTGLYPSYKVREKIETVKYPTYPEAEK

[1] = biological target: human MMRN1 N-terminal EMI-Myc-His6 (first 290 amino acids of Multimerin-1, wild type) (human) (UniProt Q13201)
[2] = anti-Myc western blot of medium, normalised to IgG
[3] = western blot of cell lysates; settings: glycan lost; control: wild type full-length MMRN1
[4] = substrate: C[C@@H]1O[C@H](OP(=O)(O)OP(=O)(O)OC[C@H]2O[C@@H](n3cnc4c(=O)[nH]c(N)nc43)[C@H](O)[C@@H]2O)[C@@H](O)[C@H](O)[C@@H]1O; test: nano LC-MS/MS glycopeptide quantification, Michaelis-Menten fit; assay type: biochemical, Homo sapiens; settings: donor, 20 μM non-fucosylated MMRN1 N-terminal EMI, 0.3 mM MnCl2, 50 mM HEPES pH 7, 37 °C, 15 min, same value for T216 and T265 sites
[5] = glycan lost, control: wild type full-length MMRN1

Row | Molecule | expression_or_secretion [3] | expression_or_secretion, other: % reduction vs WT [2, 5] | other results
1 | C[C@@H]1O[C@H](OP(=O)(O)OP(=O)(O)OC[C@H]2O[C@@H](n3cnc4c(=O)[nH]c(N)nc43)[C@H](O)[C@@H]2O)[C@@H](O)[C@H](O)[C@@H]1O [GDP-fucose] | – | – | nano LC-MS/MS of O-fucosylated EMI peptides (GFP–FUT10 (POFUT3)): Both GFP–FUT10 and GFP–FUT11 can independently add fucose to EMI substrates; nano LC-MS/MS of N-glycan fucosylation on EMI (GFP–FUT8): GFP–FUT8 was used as a positive control, and it robustly added fucose to N-glycans
2 | GFP–FUT11 (human FUT11 lacking the transmembrane domain, from pGEn2-GFP-hFUT11) (from UniProt Q495W5 1-492) (enzyme) | – | – | Km for non-fucosylated N-terminal EMI at the T216 site; O-fucosylation kinetics by LC-MS/MS, Michaelis–Menten fit, 50 nM enzyme, 100 μM GDP-fucose, 0.3 mM MnCl2, 37 °C, 15 min [1]: 6.74 µM
3 | B1 | – | – | expression_or_secretion, other: % reduction vs WT ([2]; glycan lost, control: N-terminal EMI in WT HEK293T cells): decreases
4 | B2 | no change | decreases | –
5 | B3 | no change | no change | –
6 | B4 | no change | decreases | –
7 | B5 | no change | abolishes | –
8 | B6 | – | – | expression_or_secretion, other: % reduction vs WT ([2]; glycan changed form, control: N-terminal EMI in WT HEK293T cells): decreases
9 | B7 | – | – | Km [4]: 5 µM
